According to publication PMC8079451, “Phosphopeptide interactions of the Nbs1 N-terminal FHA-BRCT1/2 domains” (Scientific Reports, 2021):
Square brackets hold non-standard residues; d marks the D form. Primed or numbered codes have the meaning given here. Ends that are not written are not given here. FITC′ = fluorescein isothiocyanate label; pT = C[C@@H](OP(=O)(O)O)[C@H](N)C(=O)O

Tests used:
Assay in all cases: fluorescence polarisation; 100 nM FITC-labeled phosphopeptide with increasing hsNbs1(384); room temperature, 15 min incubation; 25 mM HEPES pH 7.4, 150 mM NaCl, 1 mM EDTA, 2 mM DTT, 0.05% Tween20, 0.1% BSA; one-site model
Conditions in all cases: both partners purified
hsNbs1(384) S118G = target: T1, hsNbs1(384) S118G (human, UniProt O60934 1-384, S118G)
T1 construct: source: E. coli BL21(DE3) pLacI, purified as the wild type
T1 sequence (looked up): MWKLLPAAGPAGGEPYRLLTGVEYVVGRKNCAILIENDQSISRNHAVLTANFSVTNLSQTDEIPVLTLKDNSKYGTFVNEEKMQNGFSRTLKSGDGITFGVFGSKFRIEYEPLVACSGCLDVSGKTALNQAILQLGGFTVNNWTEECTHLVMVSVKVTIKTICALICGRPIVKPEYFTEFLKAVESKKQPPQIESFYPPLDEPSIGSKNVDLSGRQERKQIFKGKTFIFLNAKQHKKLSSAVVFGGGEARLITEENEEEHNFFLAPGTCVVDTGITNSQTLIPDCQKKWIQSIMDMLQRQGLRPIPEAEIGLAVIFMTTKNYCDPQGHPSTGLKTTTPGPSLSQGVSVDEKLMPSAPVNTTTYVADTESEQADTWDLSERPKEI

hsNbs1(384) K125A = target: T2, hsNbs1(384) K125A (human, UniProt O60934 1-384, K125A)
T2 construct: source: E. coli BL21(DE3) pLacI, purified as the wild type
T2 sequence (looked up): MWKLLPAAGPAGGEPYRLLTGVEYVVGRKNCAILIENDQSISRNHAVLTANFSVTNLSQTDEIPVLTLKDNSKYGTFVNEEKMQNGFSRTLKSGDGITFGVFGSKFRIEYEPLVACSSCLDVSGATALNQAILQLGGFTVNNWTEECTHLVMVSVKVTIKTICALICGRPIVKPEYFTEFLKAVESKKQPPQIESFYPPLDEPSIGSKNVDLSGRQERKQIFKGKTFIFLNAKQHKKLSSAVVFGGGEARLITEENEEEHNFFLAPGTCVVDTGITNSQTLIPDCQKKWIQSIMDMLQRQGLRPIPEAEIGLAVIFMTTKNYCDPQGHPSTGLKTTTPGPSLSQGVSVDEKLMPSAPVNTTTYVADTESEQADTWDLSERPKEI

hsNbs1(384) K160A = target: T3, hsNbs1(384) K160A (human, UniProt O60934 1-384, K160A)
T3 construct: source: E. coli BL21(DE3) pLacI, purified as the wild type
T3 sequence (looked up): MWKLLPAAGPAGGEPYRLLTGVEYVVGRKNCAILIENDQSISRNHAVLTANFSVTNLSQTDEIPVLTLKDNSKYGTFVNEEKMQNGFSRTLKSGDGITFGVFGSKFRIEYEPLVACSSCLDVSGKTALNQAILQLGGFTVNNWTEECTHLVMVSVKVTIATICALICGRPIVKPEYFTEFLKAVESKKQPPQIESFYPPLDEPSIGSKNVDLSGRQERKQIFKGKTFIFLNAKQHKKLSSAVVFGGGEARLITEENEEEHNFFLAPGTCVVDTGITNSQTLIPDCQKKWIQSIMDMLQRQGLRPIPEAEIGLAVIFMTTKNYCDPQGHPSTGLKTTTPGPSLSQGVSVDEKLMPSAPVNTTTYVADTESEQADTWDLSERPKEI

{FITC′}-GGRYIPPN[pT]PENFWEVGFPEEQ [hsCtIP phosphopeptide R841YIPPNpTPENFWEVGFPEEQ860 with N-terminal FITC-Gly-Gly] gave a Kd (hsNbs1(384) S118G) of 149 µM, a Kd (hsNbs1(384) K125A) of 39.6 µM and a Kd (hsNbs1(384) K160A) of 133 µM.
